Measurements as given in the supplement of paper PMC9942255.

Tested on: Bacillus subtilis DB104 (SP-AmyQ fusion secretion)
Test: AmyQ secretion efficiency, weighted average sort bin (1 = best secretion, 10 = worst) (bin number (weighted average, 1-10)); higher = lower secretion efficiency
In short: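 In this assay, the secretion score is defined as the average bin number weighted by read frequency, normalised to beads per bin, with low-abundance sequences not counted. B. subtilis DB104 cells expressing mature AmyQ behind designed signal peptides (amyE-integrated) were enclosed with fluorescein-starch in ~65 nL alginate beads at about 0.3 cells per bead. Beads grew about 13 h at room temperature, were stained with nile red, and occupied beads went into 10 equally populated green/red fluorescence ratio bins by large-particle flow cytometry, whose amplicons were Illumina-sequenced.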

MKKVLMAFIICLSLILSVLAAPPSGAKVESV
AmyQ secretion efficiency: 4.98

MKKWLIIAVSLAIAIVLFMYTKGEPKAAGM
AmyQ secretion efficiency: 5.65

MKRFSTAYLLLGILCSAAVFLIGAPSRALGDED
AmyQ secretion efficiency: 6.23

MKKWIYVVLVLSIAGIGGFSVHSASS
AmyQ secretion efficiency: 5.94

MKKRKRKILLSSALSFGMLISAVPALAAGT
AmyQ secretion efficiency: 3.32

MPYRKRRRVLLLLVTGLFMSLFAVTATASAQTG
AmyQ secretion efficiency: 1.13

MLKKKWMVGLLAGCLAAGGFSYNAFDTEN
AmyQ secretion efficiency: 6.19

MSGGGILALFVLSLGLLSFMVTPVSAASK
AmyQ secretion efficiency: 2.53

MKVPKTMYQRRQAGLLLSLTATSVSAHYV
AmyQ secretion efficiency: 6.61

MAIIIAIIAAVIVIAALITFNVGTPRNASPG
AmyQ secretion efficiency: 8.5

MKKLIQVMIMFTLLLTMAFSADAADS
AmyQ secretion efficiency: 4.44

MKRLLVSLRVWMVFLMNWVTPDRKTEAAAVY
AmyQ secretion efficiency: 6.9

MKRLCKKRKVFSLFLVLLPGKALGAVD
AmyQ secretion efficiency: 7.25

MKKSQYFIVFICFFVLFSVHPIAVAAADS
AmyQ secretion efficiency: 3.83

MLKKIALTLCPAIVGSLLFFTDEDASAHVS
AmyQ secretion efficiency: 4.47

MKLKKRVSMFLVALTMCGGLFVTPTKAVKT
AmyQ secretion efficiency: 3.85

MLCVMMLLFSAIAKKRRKRAQAKDQ
AmyQ secretion efficiency: 7.12

MKKKKRKFVLIVCIIFTSALFPTFSSVTAAQG
AmyQ secretion efficiency: 1.03

MKKRLIGFLVLVPALIMSGITLIELNKK
AmyQ secretion efficiency: 6.99

MKIRKILLSSALSFGMLEDEVPALAAGT
AmyQ secretion efficiency: 2.62

MKKRLIAPMLLSAASLAFFAMSGSAQGAAY
AmyQ secretion efficiency: 4.34

MKLKKRVSMFLVALTMCGGLFVFAAKAVKT
AmyQ secretion efficiency: 5.56

MKSKWMSGLLLVAVGFSFTQVMWHAGET
AmyQ secretion efficiency: 7.01

MKLWMRKTLVVLFTIVTFGLVSPPAAMMADKP
AmyQ secretion efficiency: 1.82

MKKKRLLLATSALTFSLSLVLPLDGHAKAQEV
AmyQ secretion efficiency: 2.9

MKKAFILSAAAAVGLFTFKRRQQASAKEL
AmyQ secretion efficiency: 7.06

MRKKRQVCLWILVLLLSCLSGKSAYAATS
AmyQ secretion efficiency: 2.64

MKSKWMSGLLLVAVGFSFITQVMVHAGET
AmyQ secretion efficiency: 6.13

MKKLLAAGIIGLLTVTLVFLVVLLSIASPSFAAEK
AmyQ secretion efficiency: 2.43

MKKRKQRPRLLSAASLAFFAMSGSAQAAAY
AmyQ secretion efficiency: 6.55

MKKAFLVFLSVVLVTTVFLSKQQESVAQAKQL
AmyQ secretion efficiency: 1.98

MFKRGIQAFAGGIILATAVLAAVFYLTDEDQAAAV
AmyQ secretion efficiency: 5.98

MTGWLIIAVSLAIAIVLFMYTKGEAKAAGM
AmyQ secretion efficiency: 7.08

MAIIIAIIAAVIVIAALITFKKRRKRNASPG
AmyQ secretion efficiency: 8.46

MRMLWRSLALCGLALTLAPCCQAAEP
AmyQ secretion efficiency: 1.93

MRHKIITFILAVVVIIIIGNMIGGGGGQEATSK
AmyQ secretion efficiency: 6.41

MKRFSTAYLLLGILCSAAVFLIGAPSRTLGAEV
AmyQ secretion efficiency: 3.24

MKLSVKIAGVLTVAAAAMTAKMYGTAKGN
AmyQ secretion efficiency: 5.59

MKLSVKIAGVLTVAAAAMTAKMYSTAKGN
AmyQ secretion efficiency: 6.41

MKLKKRVSMFLVALTMCGGLFVTPQAKAVKT
AmyQ secretion efficiency: 3.89

MKTKTLFIFSAILTLSIFAPNESFAQTA
AmyQ secretion efficiency: 2.17

MKKRLIGFLVLVPALIMSGITLIEDNKK
AmyQ secretion efficiency: 7.79

MRKWYFILLAGVLTSVILAFVYDKGKANEE
AmyQ secretion efficiency: 2.67

MTLGGSVSMFLVALTMCGGLFVTPAKAVKT
AmyQ secretion efficiency: 3.81

MKKKQVMLALTAAAGLGLTALHKRPAAKAAPL
AmyQ secretion efficiency: 6.71

MKKLLAAGIIGLLTVSIASPIFAAEK
AmyQ secretion efficiency: 1.99

MRKYTVIASILLSFLSVLASTVFVSKAFPV
AmyQ secretion efficiency: 8.75

MRKYTVKRSILLSFLSVLSGGHHESKAFPV
AmyQ secretion efficiency: 6.95

MNKLKRLSMLTVMIASVFIFSSHALVAQY
AmyQ secretion efficiency: 5.99

MKSKGSIMACLILFSFTITTFINTETISKFSN
AmyQ secretion efficiency: 7.47

MTTAAAVLLSLGLVFGFSYGAGHVAEAKTK
AmyQ secretion efficiency: 2.82

MKKWIYVVLVLSIAGIGGFSVHKASS
AmyQ secretion efficiency: 4.97

MLCVMMLLFSAIAEDEVSAQAKDQ
AmyQ secretion efficiency: 6.57

MKRLFMKASLVLFAVVFVFAVKGAPIKAETH
AmyQ secretion efficiency: 2.24

MRPVFPLILSAVLFLSCFFGARQTEYSASKR
AmyQ secretion efficiency: 8.3

MKSAKSVSALTPSTTLAITAKAKEL
AmyQ secretion efficiency: 6.91

MKRTWNVCLTALLSVLLVAGSVTFHAEAKKP
AmyQ secretion efficiency: 2.82

MKIRKILLSSALSFGMLEEDDPALAAGT
AmyQ secretion efficiency: 2.69

MRPVFPLILSAVLFLSCFFGARQTEASFSKR
AmyQ secretion efficiency: 2.95

MKKTIMSFKRKKALSTTAFGAHASAKEI
AmyQ secretion efficiency: 7.79

MKLSVKIAGVLTVAAAAMTAKMYTTAKGN
AmyQ secretion efficiency: 7.65

MKLAKRVSALTPSTTLAITAKGKEL
AmyQ secretion efficiency: 7.3

MKNMSCKLVVSVTLFFSFLTIGPLAHAQED
AmyQ secretion efficiency: 2.36

MFKKPTISLLIIFLLASAVLAKPIEAHTV
AmyQ secretion efficiency: 2.38

MLKKIALTLCPAIVGSLLFFTAPPFSASAHVS
AmyQ secretion efficiency: 4.02

MKKRFSLIMMTGLLFGLTEEEAFAAEK
AmyQ secretion efficiency: 2.39

MTMLRKIIGWILLLCIIPLFAFTVIASFKEV
AmyQ secretion efficiency: 6.97

MLTKRLRKKKRRLLGLIAWFPGAAQAEEK
AmyQ secretion efficiency: 7.67

MTTTSIFVITCVMAASLTLGSLLPAGYASAKED
AmyQ secretion efficiency: 3.58

MMKKGLLAGALTATVLFIGTCAVDVPGIISPKTAEAASQ
AmyQ secretion efficiency: 1.04

MGLGKKLSVAVAASFMSLSISLPVQAAEG
AmyQ secretion efficiency: 1.35

MMKKLFHSTQGRQSFFSFFGVQPIHAKKQ
AmyQ secretion efficiency: 7.5

MKLKSKLLLSCLALSTVFVATTIGNAPTH
AmyQ secretion efficiency: 7.24

MFKKHTISLLIIFLLASAVLAKPIEEHTV
AmyQ secretion efficiency: 5.81

MSKKTWMVGLLAGCLAAGGFSYNAFATEN
AmyQ secretion efficiency: 4.68

MRKNRILALFVLSLGLLSFMVTPVSTASK
AmyQ secretion efficiency: 5.93

MKKRLIGFLVLVPALIMSGITLYEANKK
AmyQ secretion efficiency: 5.95

MHLIRAAGAVCLAVVLIAGCRITSIFFNEDQHQAEGENT
AmyQ secretion efficiency: 6.96

MQNRLFRVCFLAALIMAFTLPNSVYAQKP
AmyQ secretion efficiency: 1.12

MKKLILAGIALFVFISPLKSHKT
AmyQ secretion efficiency: 5.8

MRKVFPLILSAVLFLSCFFGARQTEASASKR
AmyQ secretion efficiency: 2.13

MLKKIALTLCPAIVGSLLFFTAPPSAHVS
AmyQ secretion efficiency: 6.86

MNLRKILLSSALSLGMLKRKAPVLATSS
AmyQ secretion efficiency: 7.26

MPYLKRKYRLLVTGLFMSLFAVTATASAQTG
AmyQ secretion efficiency: 1.78

MTKKRRRAWFLPLVCVLLISGWLAPAASASAQTT
AmyQ secretion efficiency: 2.33

MKKWIYVVLVLSIAGIGGFSAFGPVTAVHAASS
AmyQ secretion efficiency: 2.96

MPYLKRVLLLLVTGLFMSLFAVTATCSAQTG
AmyQ secretion efficiency: 1.27

MRFTKVVGFLSVLGLAAVFPLTAQAADD
AmyQ secretion efficiency: 3.85

MKKRLIAPMLLSAASLAFFAMSGSAQRAAY
AmyQ secretion efficiency: 6.9

MFSIFSLIMMTGLLFGLTSPAFAAEK
AmyQ secretion efficiency: 4.78

MRKYTVIASILLSFLSVLFGVAHESKAFPV
AmyQ secretion efficiency: 3.89

MTKKAWFLPLVCVLLISGWLAPAASASAQTK
AmyQ secretion efficiency: 1.59

MLCVMMLLFSAIAAFTVTAQAKDQ
AmyQ secretion efficiency: 6.83

MKKIVSILFMFGLVMSIISLGFSQFQPSTVFAADK
AmyQ secretion efficiency: 2.96

MKKRLIAPMLLSAASLAFFAMSGSAQKAAY
AmyQ secretion efficiency: 6.67

MKRITINIITMFIAAAVIVFSLTGTAEAAEK
AmyQ secretion efficiency: 2.39

MTKKAWFLPLVCVLLISGWLAPAASASKQTT
AmyQ secretion efficiency: 2.02

MRSYIKVLTMCFLGLILFVPTLLADNS
AmyQ secretion efficiency: 4.36

MNLRKILLSSALSLGMLTLFFLSAVTVSAAPVLATSS
AmyQ secretion efficiency: 1.71

MKKFLVSLIIGTFVISVPFMANAQSD
AmyQ secretion efficiency: 1.69

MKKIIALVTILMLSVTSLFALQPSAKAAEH
AmyQ secretion efficiency: 2.46

MKKTIMSFVAVAALSTTAFGAHASLKEI
AmyQ secretion efficiency: 6.92

MKKELLASLVLCLSLSPLVSTNEVFAAEE
AmyQ secretion efficiency: 2.07

MKKRITYSLLALLAVVAFAFFSIAGAKAAEA
AmyQ secretion efficiency: 4.27

MLKRTSFVSSLRRKRKKLLSILLPSGQAHAQSA
AmyQ secretion efficiency: 6.99

MKKKQVMLALTAAAGLGLTALHDAPAAKAAPL
AmyQ secretion efficiency: 2.66

MRKYTVIASILLSFLSVLFIVVVTSKAFPV
AmyQ secretion efficiency: 5.84

MPYLKRVLLLLVTGLFMSLFAVTATYSAQTG
AmyQ secretion efficiency: 3.91

MRGTSVVGFLSVLGLAAVFPLTAQAEKA
AmyQ secretion efficiency: 2.91

MKLSVKIAGVLTVAAAAMTAKMYATRKGN
AmyQ secretion efficiency: 7.91

MNLRKILLSSALSLGMLFSFAFVSAAPVLATSS
AmyQ secretion efficiency: 2.03

MMMWLIIAVSLAIAIVLFMYTKGEAKAAGM
AmyQ secretion efficiency: 6.9

MTMLRKIIGWILLLCIIASFIVTPLFAFTVIASGKEV
AmyQ secretion efficiency: 7.88

MKKRLIAPMLLSAASLAFFAMSGSAQLAAY
AmyQ secretion efficiency: 6.99

MTKRLSTTLTFLGIQAFAGGIILATAVLAAVFYLTDEDQAAAV
AmyQ secretion efficiency: 6.23

MKRKTLSSLAISALSLGLLVSAPTASFAAES
AmyQ secretion efficiency: 2.4

MKTKTLFIFSAILTLSIFAPNETFAQTK
AmyQ secretion efficiency: 1.96

MKIRKILLSSALSFGMLLILTSISAVPALAAGT
AmyQ secretion efficiency: 2.99

MTMLRKIIGWILLLCIIPLFAFTVIASRKEV
AmyQ secretion efficiency: 6.1

MFKKLLLATSALTFSLSLVLVLSIHAKAQEV
AmyQ secretion efficiency: 3.44

MTLALRVSALTPSTTLAITAKAKEL
AmyQ secretion efficiency: 7.08

MRKKRVRKCKKAASLTLGSLLPAGYASAKED
AmyQ secretion efficiency: 7.62

MKRIRIPMKLALGAALTIAPLSFASAEEN
AmyQ secretion efficiency: 4.57

MLKKKWMVGLLAGCLAAGGFSYNAFYTEN
AmyQ secretion efficiency: 6.38

MGMKKKLSLGVASAALGLALVGGGTWGAFN
AmyQ secretion efficiency: 7.37

MLKRTSFVSSLFISSAVLLLPSGQAHAQSA
AmyQ secretion efficiency: 1.64
